Experimental data published in the RNAGym collection of RNA variant scans (doi:10.1073/pnas.2313332121).
This sample holds only a part of the variants without activity.

B1: TPR 5TU (parent)
chain: GGAUCUUCUCGAUCUAACAAAAAAGACAAAUCUGCCACAAAGCUUGAGAGCAUCUUCGGAUGCAGAGGCGGCAGCCUUCGGUGGCGCGAUAGCGCCAACGUUCUCAACUAUGACACGCAAAACGCGUGCUCCGUUGAAUGGAGUUUAUCAUG

Variants of: B1
Assay: polymerase ribozyme fitness, log enrichment relative to wild type (log ratio); higher = more active; in vitro selection for triplet polymerase activity
Method in brief: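 Fitness measures genotype enrichment against wild-type enrichment on a logarithmic scale, with inverse-variance-weighted averaging of replicates. The logarithm is base 2, and genotypes were kept only with ≥10 input reads and ≥1 read per output in Illumina sequencing. The sequenced libraries came from one triplicate in vitro selection round, including frozen incubation at −7 °C, of PCR-built, transcribed mutant libraries of each subunit of a heterodimeric triplet polymerase ribozyme.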

Point of comparison: GGAUCUUCUCGAUCUAACAAAAAAGACAAAUCUGCCACAAAGCUUGAGAGUAUCUUCGGAUGCAGAGGCGGCAGCCUUCGGUGGCGCGAUAGCGCCAACGUUCUCAACUAUGACACGCAAAACGCGUGCUCCGUUGAAUGGAGUUUAUCAUG [C51U], “polymerase ribozyme fitness (log ratio)” value -0.394. Against it:
- GGAUCUUCUCGAUCUAACAAAAAAGACAAAUCUGCCACAAAGCUUGAGAGAAUCUUCGGAUGCAAAGGCGGCAGCCUUCGUUGGCGCGAUAGCGCGAACGUUCUCUACUAUGACACGCAAAACGCGUGCUCCGUUUAAUGGAGUUUAUCAUG [C51A G65A G81U C96G A106U G136U] — lower, ≤ -4.2
- GGAUCUUCUCGAUCUAACAAAAAAGACAAAUCUGCCACAAAGCUUGAGAGGAUCUUCGGAUGCAGUAGCGGCAGCCUUCGGUGGCGCGAUAGCGCCAACGUUCUCAACUAUGACACGUAAAACGCGUGCUCCGUUGAAUGGAGUUUAUCAUG [C51G A66U G67A C118U] — lower, ≤ -4.2
- GGAUCUUCUCGAUCUAACAAAAAAGACAAAUCUGCCACAAAGCUUGAGAGGAUCUUCGGAUGCAGAGGCGGCAGCCUUCGGUGGCGCGAGAGCGCCAACGUUCUCAACUAUGACACGCAAAACGCGUGCUCCGUUGAAUGGAGUUUAUCAUG [C51G U90G] — lower, ≤ -4.2
- GGAUCUUCUCGAUCUAACAAAAAAGACAAAUCUGCCACAAAGCUUGAGAGAAUCUUCGGAUGCAGAGGCGGCAGCCUUCGGUGGCGCGAUAUCGCCAACGUUCUCAACCAUGACACGCAAAACGCGUGCUCCGUUGAAUGGAGUUUAUCAUG [C51A G92U U109C] — lower, ≤ -4.2
- GGAUCUUCUCGAUCUAACAAAAAAGACAAAUCUGCCACAAAGCUUGAGAGAAUCAUCGGAUGCAGAGGCGGCAGCCUUCGGUGGCGCGAUAGCACCAACGUUCUCAACUAUGACACGCAAAACGAGUGCUCCGUUGAAUGGAGUUUAUCAUG [C51A U55A G94A C125A] — lower, -3.04
- GGAUCUUCUCGAUCUAACAAAAAAGACAAAUCUGCCACAAAGCUUGAGAGAAUCUUCGGAUGCAGAGGCGGCAGCCUUCGGGGGCGCGAUAGCGCCAACGUUCUCAACUAUGACUCGCAAAACGCGUGCUCCGUUGAAUGGAGUUUAUCAUG [C51A U82G A115U] — lower, -3.17
- GGAUCUUCUCGAUCUAACAAAAAAGACAAAUCUGCCACAAAGCUUGAGAGGAUCUUCGGAUGCAGAGGCGGAAGCCUUAGGUGGCGCGAUAGCACCAACGUUCUCAACUAUGACACGCAAAACGCGUGCUCCGUUGAAUGGAGUUUAUCAUG [C51G C72A C79A G94A] — lower, ≤ -4.2
- GGAUCUUCUCGAUCUAACAAAAAAGACAAAUCUGCCACAAAGCUUGAGAGGAUCUUCGGAUGCAGAGGCGGCAGCCUUCGUUGGCGCGAUAGCGCUAACGUUCUCAACUAUGACACGCAAAACGCGUGCUCCGUUGAAUGGAGUUUAUCAUG [C51G G81U C96U] — lower, -1.16
- GGAUCUUCUCGAUCUAACAAAAAAGACAAAUCUGCCACAAAGCUUGAGAGAAUCAUCGGAUGCAGAGGCGGCAGCCUUCGGUGGCGCGAUAGCGACAACGUUCUCAACUUUGACACGCAAAACGCGUCCUCCGUUGAAUGGAGUUUAUCAUG [C51A U55A C95A A110U G128C] — lower, ≤ -4.2
- GGAUCUUCUCGAUCUAACAAAAAAGACAAAUCUGCCACAAAGCUUGAGAGGAUCUUCGGAUGCAGAGGCGGCAGCCUUCGGUGGCGCGAUAGCGCCAACGUUCUCAACUAUGACACGCAAAACGCGUGCUCCGUUGAAUGGAGUUUAUCAUG [C51G] — lower, -1.58
- GGAUCUUCUCGAUCUAACAAAAAAGACAAAUCUGCCACAAAGCUUGAGAGAAUCUUCGGAUGCAGAGGCGGCAGCCUUCGGUGGCGCGAUGGCGUCGACGUUCUCAACUAUGACACGCUAAACGCGUGCUCCGUUGAAUGGAGUUUAUCAUG [C51A A91G C95U A97G A119U] — lower, ≤ -4.2
- GGAUCUUCUCGAUCUAACAAAAAAGACAAAUCUGCCACAAAGCUUGAGAGAAUCUUCGGAUGCAGAGGCGGCAGCCUUCGGUGGCGCGAUAGCGCCAAUGUUCUCAACUAUGACACGCAAAACGCGUGCUCCGUUGAAUGGAGUUUAUCAUG [C51A C99U] — lower, -1.63
- GGAUCUUCUCGAUCUAACAAAAAAGACAAAUCUGCCACAAAGCUUGAGAGGAUCUUCGGAUGCAGAGGCGGCAGCCUUCGGUGGCGCGAUAGCACCAACGUUCUCAACUAUGACACGCAAAACGCGUGCUCCGUUGAAUGGAGUUUAUCAUG [C51G G94A] — lower, -1.79
- GGAUCUUCUCGAUCUAACAAAAAAGACAAAUCUGCCACAAAGCUUGAGAGGUUCUUCGGAUGAAGAGGCGGCAGCCUUCGGUGGCGCGAUAGCGCCAACGUUCUCAACUAUGACACGCAAAACGCGUGCUCCGUUGAUUGGAGUUUAUCAUG [C51G A52U C63A A138U] — lower, ≤ -4.2
- GGAUCUUCUCGAUCUAACAAAAAAGACAAAUCUGCCACAAAGCUUGAGAGAAUCGUCGGAUGCAGAGGCGGCAGCCUUCGGUGGCGCGAUAGCGCCAACGUUCUCAACUAUGACACGCAAAACGCGUGCUCCGUUGAAUGGAGUUUAUCAUG [C51A U55G] — lower, -2.17
- GGAUCUUCUCGAUCUAACAAAAAAGACAAAUCUGCCACAAAGCUUGAGAGGAUCUUCGGAUGCAGAGGCGGCGGCCUUCGGUGGCGCGAUAGCUUCAACGUUCUCAACUAUGACACGAAAAACGCGUGCUCCGUUGAAUGGUGUUUAUCAUA [C51G A73G G94U C95U C118A A142U G152A] — lower, ≤ -4.2
- GGAUCUUCUCGAUCUAACAAAAAAGACAAAUCUGCCACAAAGCUUGAGAGAAUCUUGGGAUGCAGAGGCGGCAGCCUUCGGUGGCGCGAUAGCGCCAACGUUCUCAACUAUGACACGCAAAACGCGUGCUCCGUUGAAUGGAGUUUAUCAUG [C51A C57G] — lower, -2.19
- GGAUCUUCUCGAUCUAACAAAAAAGACAAAUCUGCCACAAAGCUUGAGAGGAUCUUCGGAUGCAGAGGCGGCAGCCUUCGGUGGCGCAAUGGCGCCAACGUUCUCAACUAUGACUCGCAAAACGCGUGCUCCGUUGAAUGGAGGUUAUCACG [C51G G88A A91G A115U U144G U151C] — lower, ≤ -4.2
